Data from publication doi:10.1101/2020.06.30.178921 (bioRxiv, 2020).

Biological target: CH848TF gp120 monomeric protein (HIV-1 CH848 transmitted-founder …, UniProt A0A1W6IPB2, strain, N-linked glycans)
Test: ELISA

B1: 2G12 IgG (antibody, V domains shown)
VH: EVQLVESGGGLVKAGGSLILSCGVSNFRISAHTMNWVRRVPGGGLEWVASISTSSTYRDYADAVKGRFTVSRDDLEDFVYLQMHKMRVEDTAIYYCARKGSDRLSDNDPFDAWGPGTVVTVSP
VL: DVVMTQSPSTLSASVGDTITITCRASQSIETWLAWYQQKPGKAPKLLIYKASTLKTGVPSRFSGSGSGTEFTLTISGLQFDDFATYHCQHYAGYSATFGQGTRVEIK
**Q.** Does B1 bind?
**A.** binds
